From US10010626B2, “Molecular constructs with targeting and effector moieties” (Immunwork Inc., priority 2015, dated 2018) come the findings set out here.

The assay concerns CD3-Fc-fusion protein. Nature of the assay: ELISA analysis of TCO- and DBCO-conjugated scFv specific for CD3. The class given is binding. Particulars: anti-PD1 scFv negative control, anti-CD3 scFv positive control. The procedure: The DNA sequence encoding SEQ ID NO: 42 was synthesized and expressed as in the above Examples. The sequences of VL and VH of scFv specific for CD3 were those of VL and VH of mutated Teplizumab. For the conjugation with Mal-PEG3-TCO and Mal-PEG5-DBCO (Conju-probe, Inc.), the cysteine residue at the C-terminal end of the purified scFv of the mutated teplizumab was reduced by incubating 5 mM DTT at room temperature for 4 hours with gentle shaking. The buffer of reduced anti-CD3 scFv was exchanged to sodium phosphate buffer (100 mM sodium phosphate, pH7.0, 50 mM NaCl, and 5 mM EDTA) by using NAP-10 Sephadex G-25 column. After the reduction reaction and buffer exchange, conjugation was conducted overnight at room temperature in a reaction molar ratio of 1:1 ([Mal-PEG3-TCO or Mal-PEG5-DBCO:[scFv]]. The excess crosslinker was removed by a desalting column and the TCO-conjugated and DBCO-conjugated scFv products were analyzed.
CD3-Fc-fusion protein, sequence (P07766 23-126 limits assumed): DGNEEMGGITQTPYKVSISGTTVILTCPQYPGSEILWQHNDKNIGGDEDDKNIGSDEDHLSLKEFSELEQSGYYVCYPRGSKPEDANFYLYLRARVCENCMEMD
The purity of TCO-conjugated scFvs specific for CD3 was identified through Coomassie staining of 12% SDS-PAGE (data not shown). FIG. 23A and […] show, respectively, the ELISA analysis of TCO-conjugated scFv and DBCO-conjugated scFv specific for CD3, in which anti-PD1 scFv and anti-CD3 scFv were used as a negative control and positive control, respectively.

B1: TCO-conjugated scFv: scFv of mutated teplizumab (SEQ ID NO: 42) conjugated with Mal-PEG3-TCO (protein)
scFv: DIQMTQSPSSLSASVGDRVTITCSASSSVSYMNWYQQTPGKAPKRWIYDTSKLASGVPSRFSGSGSGTDYTFTISSLQPEDIATYYCQQWSSNPFTFGQGTKLQITRGSTSGSGKPGSGEGSTKGQVQLVQSGGGVVQPGRSLRLSCKASGYTFTRYTMHWVRQAPGKGLEWIGYINPSRGYTNYNQKVKDRFTISRDNSKNTAFLQMDSLRPEDTGVYFCARYYDDHYSLDYWGQGTPVTVSSGGGGSGGGGSC
modifications: Mal-PEG3-TCO conjugate; mutated teplizumab scFv
B1: the “binding to CD3-Fc-fusion protein (ELISA)” value is “bound to CD3-Fc-fusion protein”.

B2: DBCO-conjugated scFv specific for CD3: scFv of mutated teplizumab (SEQ ID NO: 42) conjugated with Mal-PEG5-DBCO (protein)
scFv: DIQMTQSPSSLSASVGDRVTITCSASSSVSYMNWYQQTPGKAPKRWIYDTSKLASGVPSRFSGSGSGTDYTFTISSLQPEDIATYYCQQWSSNPFTFGQGTKLQITRGSTSGSGKPGSGEGSTKGQVQLVQSGGGVVQPGRSLRLSCKASGYTFTRYTMHWVRQAPGKGLEWIGYINPSRGYTNYNQKVKDRFTISRDNSKNTAFLQMDSLRPEDTGVYFCARYYDDHYSLDYWGQGTPVTVSSGGGGSGGGGSC
modifications: Mal-PEG5-DBCO conjugate; mutated teplizumab scFv
Regarding B2, the “binding to CD3-Fc-fusion protein (ELISA)” value is recorded as “bound to CD3-Fc-fusion protein”.
